In patent US20230382974A1 (HANMI PHARM, published 2023):
Bridges are numbered along the chain shown (N, C = ends). Where no end group is shown, it is not given here. [ ]: non-standard residue; d: D form. Aib = CC(C)(N)C(=O)O

B1: triple agonist peptide of SEQ ID NO: 9 (peptide)
peptide: Y[Aib]EGTFTSDYSEYMEKEAVREFICWLVKGGPSSGAPPPS-NH2
modifications: bridge (positions not given here); not fully specified; also: ring formation between underlined and bold residues, places not given here

How the values were obtained:
Assay in all cases: cell-based or functional assay
human GLP-1 receptor = human GLP-1 receptor (human, UniProt P43220 24-463)
human glucagon receptor = human glucagon receptor (human, UniProt P47871 26-477)
human GIP receptor = target: T1, human GIP receptor (human, UniProt P48546 22-466)
T1 sequence (looked up): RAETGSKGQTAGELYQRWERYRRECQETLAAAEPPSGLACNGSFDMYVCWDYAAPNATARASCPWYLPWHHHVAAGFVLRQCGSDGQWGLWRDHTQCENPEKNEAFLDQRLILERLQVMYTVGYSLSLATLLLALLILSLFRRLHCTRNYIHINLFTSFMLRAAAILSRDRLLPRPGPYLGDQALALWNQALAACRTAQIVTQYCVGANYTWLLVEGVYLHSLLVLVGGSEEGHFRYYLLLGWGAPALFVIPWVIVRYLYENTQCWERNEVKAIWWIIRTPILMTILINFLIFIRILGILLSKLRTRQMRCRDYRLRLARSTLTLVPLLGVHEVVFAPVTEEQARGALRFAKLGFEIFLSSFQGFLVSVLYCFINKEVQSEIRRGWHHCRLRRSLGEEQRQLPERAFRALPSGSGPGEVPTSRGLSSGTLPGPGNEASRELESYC

Chain of human glucagon receptor (P47871 26-477): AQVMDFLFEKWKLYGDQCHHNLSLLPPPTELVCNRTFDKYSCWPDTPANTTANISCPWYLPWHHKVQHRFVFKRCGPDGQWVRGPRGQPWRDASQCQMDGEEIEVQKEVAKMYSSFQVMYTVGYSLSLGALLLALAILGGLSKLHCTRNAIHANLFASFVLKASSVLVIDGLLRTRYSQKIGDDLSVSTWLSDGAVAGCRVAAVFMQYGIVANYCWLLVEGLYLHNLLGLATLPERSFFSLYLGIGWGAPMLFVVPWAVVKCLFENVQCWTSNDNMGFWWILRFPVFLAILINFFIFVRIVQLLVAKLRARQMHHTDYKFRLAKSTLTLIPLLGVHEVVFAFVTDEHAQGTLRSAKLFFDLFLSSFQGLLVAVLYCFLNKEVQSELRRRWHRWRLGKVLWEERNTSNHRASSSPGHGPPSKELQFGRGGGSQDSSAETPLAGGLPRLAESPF

Binder | In vitro activity relative to native peptide (%), vs. GLP-1 (cAMP accumulation EC50, LANCE cAMP kit, CHO cells) (human GLP-1 receptor) [%] | In vitro activity relative to native peptide (%), vs. Glucagon (cAMP accumulation EC50, LANCE cAMP kit, CHO cells) (human glucagon receptor) [%] | In vitro activity relative to native peptide (%), vs. GIP (cAMP accumulation EC50, LANCE cAMP kit, CHO cells) (human GIP receptor) [%]
Y[Aib]EGTFTSDYSIQLDKQAA[Aib]AFVQWLIAGGPSSGAPPPSK-NH2 [triple agonist peptide of SEQ ID NO: 12] | 87.2 | 6.6 | 52.8
B1 | 37 | 26.6 | 11.7
Y[Aib]QGTFTSDYSKALDEKAAKDFVQWLLDQHPSSGQPPPSC-NH2 (bridge 16-20) [triple agonist peptide of SEQ ID NO: 6] | 89.5 | 78.1 | 513
Y[Aib]QGTFTSDYSIYLDEQRAKEFIAWLLAHHPSSGQPPPSC-NH2 (bridge 16-20) [triple agonist peptide of SEQ ID NO: 4] | 11.2 | 59.9 | 124
Y[Aib]QGTFTSDYSKYLDEQRAKEFVQWLLDHHPSSGQPPPSC-NH2 (bridge 16-20) [triple agonist peptide of SEQ ID NO: 1] | 16.6 | 443 | 51.5
Y[Aib]QGTFTSDYSKYLDEKRAKEFVQWLLDQHPSSGQPPPSC-NH2 (bridge 16-20) [triple agonist peptide of SEQ ID NO: 5] | 49.1 | 826 | 35.5
Y[Aib]QGTFTSDYSKALDEKAAKDFVQWLKDQHPSSGQPPPSC-NH2 (bridge 16-20) [triple agonist peptide of SEQ ID NO: 7] | 97.8 | 3.62 | 33.9
Y[Aib]QGTFTSDYSIYLDEKAAKEFVQWLLDQHPSSGQPPPSC-NH2 (bridge 16-20) [triple agonist peptide of SEQ ID NO: 11] | 77.6 | 10.2 | 33.7
Y[Aib]QGTFTSDYSKYLDEQRAKEFIAWLLDHHPSSGQPPPSC-NH2 (bridge 16-20) [triple agonist peptide of SEQ ID NO: 3] | 17.4 | 577 | 48.4
Y[Aib]QGTFTSDYSKYLDEQAAKEFVQWLLDHHPSSGQPPPSC-NH2 (bridge 16-20) [triple agonist peptide of SEQ ID NO: 2] | 91.4 | 146 | 150
Y[Aib]QGTFTSDYSKYLDERASKDFVQWLLDHHPSSGQPPPSC-NH2 (bridge 16-20) [triple agonist peptide of SEQ ID NO: 10] | 65.3 | 19 | 23.4
Y[Aib]QGTFTSDCSKYLDEKAAKEFVQWLLDHHPSSGQPPPS-NH2 (bridge 16-20) [triple agonist peptide of SEQ ID NO: 8] | 42.6 | 5.52 | 6.19
